According to PMC5992146:

How the values were obtained:
actin [1] = molecular target: actin (UniProt P68135)
actin [2] = molecular target: actin (UniProt P68135); assay: co-sedimentation; MYO3A (0.5 µM) equilibrated with actin (0-60 µM) in KMg50 buffer (50 mM KCl, 1 mM EGTA, 1 mM MgCl2, 10 mM imidazole pH 7.0, 1 mM DTT) with ATP regeneration system, 1 mM ATP added, centrifuged 10 min at 25 °C; fraction bound from GFP fluorescence of the supernatant and from Coomassie SDS-PAGE, hyperbolic fit; steady-state actin affinity (K_Actin) in the presence of ATP

Row | Substance | K (ATPase): actin concentration at which the steady-state actin-activated ATPase activity is one-half maximal (KMg50 buffer, 25 °C) (actin [1]) [µM] | Kd (actin [2]) [µM]
1 | MYO3AΔK 2IQ c-GFP L697W (from UniProt Q8NEV4-1 1-1616) (domain or fragment) | < 0.77 | 2.21
2 | MYO3AΔK 2IQ c-GFP WT (from UniProt Q8NEV4-1 1-1616) (domain or fragment) | 1.93 | 4.69
